Biological target: Fibrillar type I collagen (PureCol atelo-type I collagen, Advanced Biomatrix Cat# 5005) (UniProt P02453)
Assay: ELISA

UniProt P02453, sequence (P02453 162-1217, chain 1 of 2): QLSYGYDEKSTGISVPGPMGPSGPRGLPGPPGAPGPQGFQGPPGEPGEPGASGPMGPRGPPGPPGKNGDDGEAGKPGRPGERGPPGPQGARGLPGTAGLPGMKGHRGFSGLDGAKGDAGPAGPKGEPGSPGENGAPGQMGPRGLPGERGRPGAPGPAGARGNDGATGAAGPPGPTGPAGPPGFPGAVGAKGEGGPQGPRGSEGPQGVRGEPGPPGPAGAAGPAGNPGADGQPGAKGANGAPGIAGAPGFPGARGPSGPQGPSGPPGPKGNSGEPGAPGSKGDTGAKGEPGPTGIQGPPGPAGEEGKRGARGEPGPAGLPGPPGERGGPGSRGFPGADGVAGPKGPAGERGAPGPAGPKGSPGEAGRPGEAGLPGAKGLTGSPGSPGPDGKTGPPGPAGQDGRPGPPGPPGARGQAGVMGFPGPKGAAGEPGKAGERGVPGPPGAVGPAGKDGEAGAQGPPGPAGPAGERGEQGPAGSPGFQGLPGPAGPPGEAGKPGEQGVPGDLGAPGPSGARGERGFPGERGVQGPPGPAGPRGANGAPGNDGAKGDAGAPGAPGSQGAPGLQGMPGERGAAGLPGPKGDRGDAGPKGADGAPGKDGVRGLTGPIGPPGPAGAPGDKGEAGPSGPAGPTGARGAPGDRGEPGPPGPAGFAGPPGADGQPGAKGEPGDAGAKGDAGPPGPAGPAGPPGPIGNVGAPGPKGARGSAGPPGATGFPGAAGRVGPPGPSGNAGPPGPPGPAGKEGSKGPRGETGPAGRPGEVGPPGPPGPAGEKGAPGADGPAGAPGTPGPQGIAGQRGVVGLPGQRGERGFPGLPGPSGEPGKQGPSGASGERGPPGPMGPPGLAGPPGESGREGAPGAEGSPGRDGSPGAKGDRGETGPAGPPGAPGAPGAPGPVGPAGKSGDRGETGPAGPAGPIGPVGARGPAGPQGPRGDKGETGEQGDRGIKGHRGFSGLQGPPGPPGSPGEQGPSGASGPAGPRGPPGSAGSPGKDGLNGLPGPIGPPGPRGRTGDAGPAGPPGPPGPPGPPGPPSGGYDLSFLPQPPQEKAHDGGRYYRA
UniProt P02453, sequence (P02465 80-1117, chain 2 of 2, further chain): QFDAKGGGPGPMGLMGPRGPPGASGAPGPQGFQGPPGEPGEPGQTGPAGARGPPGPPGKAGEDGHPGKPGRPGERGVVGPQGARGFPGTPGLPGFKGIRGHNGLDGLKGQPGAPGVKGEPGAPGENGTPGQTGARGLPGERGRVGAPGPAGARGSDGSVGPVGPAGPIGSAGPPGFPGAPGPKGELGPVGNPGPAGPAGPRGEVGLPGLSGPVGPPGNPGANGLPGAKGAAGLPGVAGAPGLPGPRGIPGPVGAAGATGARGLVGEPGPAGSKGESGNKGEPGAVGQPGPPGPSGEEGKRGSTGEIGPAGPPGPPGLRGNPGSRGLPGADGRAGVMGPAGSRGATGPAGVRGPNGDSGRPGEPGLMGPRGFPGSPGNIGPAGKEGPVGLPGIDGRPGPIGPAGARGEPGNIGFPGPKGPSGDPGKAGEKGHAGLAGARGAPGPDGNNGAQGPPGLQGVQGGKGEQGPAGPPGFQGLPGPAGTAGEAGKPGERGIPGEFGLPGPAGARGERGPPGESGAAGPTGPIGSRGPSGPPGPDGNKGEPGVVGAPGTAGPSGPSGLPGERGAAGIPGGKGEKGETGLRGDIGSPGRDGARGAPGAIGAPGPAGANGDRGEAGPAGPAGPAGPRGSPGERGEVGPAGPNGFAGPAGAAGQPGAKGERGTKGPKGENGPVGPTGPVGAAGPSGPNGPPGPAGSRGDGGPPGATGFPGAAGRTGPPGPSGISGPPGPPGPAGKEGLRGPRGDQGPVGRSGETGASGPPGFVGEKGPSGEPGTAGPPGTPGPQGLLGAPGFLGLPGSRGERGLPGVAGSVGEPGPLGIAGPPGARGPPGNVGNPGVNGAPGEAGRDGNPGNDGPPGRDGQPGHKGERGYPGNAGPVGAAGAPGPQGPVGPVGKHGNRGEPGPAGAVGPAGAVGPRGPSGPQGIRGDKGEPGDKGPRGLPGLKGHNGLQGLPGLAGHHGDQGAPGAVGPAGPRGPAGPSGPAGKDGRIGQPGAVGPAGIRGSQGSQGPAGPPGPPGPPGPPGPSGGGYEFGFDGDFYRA

binding relative to that of WISP1 at equal concentrations: 75%
Substance: WISP1ΔCT (form of WISP1 lacking a CT-domain), overexpressed in 4T1 cells (conditioned medium) (domain or fragment)

Reference: PMC8595651
